Legend:
[1] = target: HLA-B*40:01; assay: IEDB peptide-MHC binding, purified MHC/competitive/radioactivity; filed as Kd, often an IC50 or EC50 that approximates it; ≥ and ≤ were set here for values at or beyond the usual limits of such assays
[2] = target: HLA-A*02:01; assay: IEDB peptide-MHC binding, purified MHC/competitive/fluorescence; ≥ and ≤ were set here for values at or beyond the usual limits of such assays
[3] = target: HLA-A*24:02; assay: as above
[4] = target: HLA-B*39:01; assay: IEDB peptide-MHC binding, purified MHC/competitive/fluorescence; filed as Kd, often an IC50 or EC50 that approximates it; ≥ and ≤ were set here for values at or beyond the usual limits of such assays; details: source organism: Shewanella putrefaciens CN-32
[5] = target: HLA-A*02:01; assay: IEDB peptide-MHC binding, purified MHC/competitive/radioactivity; filed as Kd, often an IC50 or EC50 that approximates it; ≥ and ≤ were set here for values at or beyond the usual limits of such assays
[6] = target: HLA-B*57:01; assay: IEDB peptide-MHC binding, purified MHC/direct/fluorescence; filed as Kd, often an IC50 or EC50 that approximates it; ≥ and ≤ were set here for values at or beyond the usual limits of such assays
[7] = target: HLA-B*15:17; assay: as above
[8] = target: HLA-A*69:01; assay: as above; details: source organism: Mycobacterium tuberculosis variant bovis BCG str. Pasteur 1173P2
[9] = target: HLA-A*11:01; assay: as above; details: source organism: Mycobacterium tuberculosis variant bovis BCG str. Pasteur 1173P2
[10] = target: HLA-B*27:05; assay: as above
[11] = target: HLA-A*31:01; assay: as above
[12] = target: HLA-B*40:01; assay: as above
[13] = target: HLA-B*58:01; assay: as above
[14] = target: HLA-A*03:01; assay: as above
[15] = target: HLA-B*44:02; assay: as above
[16] = target: HLA-A*01:01; assay: as above
[17] = target: HLA-B*48:01; assay: as above
[18] = target: HLA-B*46:01; assay: as above
[19] = target: HLA-B*18:01; assay: as above
[20] = target: HLA-B*08:01; assay: as above
[21] = target: HLA-A*02:02; assay: IEDB peptide-MHC binding, purified MHC/competitive/radioactivity; filed as Kd, often an IC50 or EC50 that approximates it; ≥ and ≤ were set here for values at or beyond the usual limits of such assays; details: source organism: Homo sapiens
[22] = target: HLA-A*26:01; assay: IEDB peptide-MHC binding, purified MHC/competitive/fluorescence; filed as Kd, often an IC50 or EC50 that approximates it; ≥ and ≤ were set here for values at or beyond the usual limits of such assays; details: source organism: Yersinia pestis Nepal516
[23] = target: HLA-A*02:01; assay: IEDB peptide-MHC binding, purified MHC/direct/fluorescence; filed as Kd, often an IC50 or EC50 that approximates it; ≥ and ≤ were set here for values at or beyond the usual limits of such assays; details: source organism: Mammarenavirus juninense
[24] = target: HLA-B*15:01; assay: as above; details: source organism: Mammarenavirus juninense
[25] = target: HLA-B*07:02; assay: as above; details: source organism: Mammarenavirus juninense
[26] = target: HLA-B*44:03; assay: IEDB peptide-MHC binding, purified MHC/competitive/radioactivity; filed as Kd, often an IC50 or EC50 that approximates it; ≥ and ≤ were set here for values at or beyond the usual limits of such assays; details: source organism: Dengue virus 4 Dominica/814669/1981
[27] = target: HLA-B*44:02; assay: as above; details: source organism: Dengue virus 2 Jamaica/1409/1983
[28] = source organism: Sudan ebolavirus
[29] = source organism: West Nile virus
[30] = source organism: Zaire ebolavirus
[31] = source organism: Mycobacterium tuberculosis variant bovis BCG str. Pasteur 1173P2
[32] = source organism: Cryptosporidium parvum
[33] = source organism: Mammarenavirus juninense
[34] = source organism: Vaccinia virus Copenhagen

IEVKTCIWPK
Kd ([1]; source organism: Dengue virus 1 Brazil/97-11/1997): 2.91 µM

GIAWIPYFG
IC50 [2, 28]: 2.72 µM
IC50 [3, 28]: ≥ 76.2 µM

THEILWPSF
Kd [4]: 2.48 µM

LLMWITQCFL
Kd ([5]; source organism: Homo sapiens): 0.043 µM

RVLEMVEDW
Kd [6, 29]: 0.0879 µM
Kd [7, 29]: 0.0432 µM

REWCFTGERN
Kd ([1]; source organism: Dengue virus 4 Philippines/H241/1956): 0.502 µM

FFLWVIILF
IC50 [2, 30]: 7.45 µM
IC50 [3, 30]: 53 µM

IIRVTSELL
Kd [8]: ≥ 20 µM
Kd [6, 31]: ≥ 20 µM
Kd [9]: ≥ 20 µM
Kd [10, 31]: ≥ 20 µM
Kd [11, 31]: ≥ 20 µM
Kd [12, 31]: ≥ 20 µM
Kd [13, 31]: ≥ 20 µM
Kd [14, 31]: ≥ 20 µM
Kd [15, 31]: ≥ 20 µM
Kd [16, 31]: ≥ 20 µM
Kd [17, 31]: ≥ 20 µM
Kd [18, 31]: ≥ 20 µM
Kd [19, 31]: ≥ 20 µM
Kd [20, 31]: 13 µM

KLEEEQIIL
Kd ([5]; source organism: Homo sapiens): 0.0721 µM
Kd [21]: 0.0735 µM

KACPPGFVF
Kd [6, 32]: 2.48 µM
Kd [13, 32]: 0.0177 µM
Kd [7, 32]: 0.143 µM

YTYATRGIY
Kd [22]: 0.0062 µM

DLKLVDVKL
Kd [6, 33]: ≥ 20 µM
Kd [10, 33]: ≥ 20 µM
Kd [11, 33]: ≥ 20 µM
Kd [12, 33]: ≥ 20 µM
Kd [13, 33]: ≥ 20 µM
Kd [14, 33]: ≥ 20 µM
Kd [15, 33]: ≥ 20 µM
Kd [23]: ≥ 20 µM
Kd [24]: ≥ 20 µM
Kd [16, 33]: ≥ 20 µM
Kd [17, 33]: ≥ 20 µM
Kd [18, 33]: ≥ 20 µM
Kd [19, 33]: ≥ 20 µM
Kd [20, 33]: ≥ 20 µM
Kd [25]: ≥ 20 µM

LHSLSVETI
IC50 [2, 34]: ≥ 195 µM
IC50 [3, 34]: 13 µM

EEIDKKDGDL
Kd [26]: 0.421 µM
Kd ([1]; source organism: Dengue virus 4 Dominica/814669/1981): 1.89 µM

KELKCGSGIF
Kd [27]: 0.0336 µM

GIFEDRAPV
Kd ([5]; source organism: Human alphaherpesvirus 1 strain 17): 0.5 µM

ELSGYCSNI
Kd ([5]; source organism: Lassa virus GA391): 12.5 µM
